In patent publication US7968306B2 (Wisconsin Alumni Research Foundation, priority 2002, dated 2011):

B1: annexin I: native rabbit lung annexin I protein (protein, UniProt P51662 2-346, looked up)
Annexin A1: AMVSEFLKQAWFIDNEEQDYINTVKTYKGGPGSAVSPYPAFNPSSDVAALHQAIMVKGVDEATIIDILTKRNNAQRQQIKAAYLQEKGKPLDEVLKKALTGHLEEVVLALLKTPAQFDADELRAAMKGLGTDEDTLIEILASRNNKEIREINRVYREELKRDLAKDIASDTSGDFQKALLSLAKGDRSEDFGVNEDLADTDARALYEAGERRKGADVNVFTTILTTRSYLHLRRVFQKYSKYSQHDMNKVLDLELKGDIEKCLTAIVQCATCKPAYFAEKLYQAMKGAGTRHKALIRIMVSRSEVDMNDIKAFYQKKYGVSLCQAILDETKGDYEKILVALCGGN
B2: Truncated α1-AT: 48 kDa truncated human α1-AT (16His to 357Pro) isolated from heat-treated CF BALF; PLA2 stimulator (protein, listed as Homo sapiens)
chain: HDQDHPTFDKITPDLAEFAFSLYRQLAHQSDSTNIFFSPVSIAAAFAMLSLGAKGDTHDEILEGLNFNLTEIPEAQIHEGFQELLRTLNQPDSQLQLTTGNGLFLSEFLKLFDKFLEDFKKLYHSEAFTVNFGTDEEAKKQINDYVEKGTQGKIVNLVKELDRDTVFALVNYIFFKGKWERPFEVKDTEEEDFHVDQVTTVKVPMMKRLGMFNIQHCKKLSSWVLLMKYLGNATAIFFLPDEGKLQHLENELTHDIITKFLENEDRRSASLHLPKLSITGTYDLKSVLGQLGITKVFSNGADLSGVTEEAPLKLSKAVHKAVLTIDEKGTEAAGAMFLEAIP
B3: annexin VIII: native rabbit lung annexin VIII protein (protein, UniProt O97529 1-327, looked up)
Annexin A8: MAWWKAWVEQEGVTVKGSPHFNPVPDAETLYKAMKGIGTNEQAIIDVLTRRSSAQRQQIAKSFKAQFGSDLTETLKSELSGKFERLIVALMYPPYRYEAKELHDAMKGLGTKEGVIIEILASRTKNQLQEIMKAYEEDYGSSLEEDIQADTSGYLERILVCLLQGSRDDVTGFVDPGLALQDAQDLYAAGEKICGTDEMKFITILCTRSARHLMRVFEEYEKIANKSIEDSIKSETHGSLEEAMLTIVKCTRNLHCYFAERLHYAMKGAGTLDGTLIRNIVSRSEIDLNLIKGHYKKMYGKTLSSMIMEDTSGDYKNALLSLVGSDP

Experiments:
porcine pancreatic PLA2 = porcine pancreatic PLA2 (Sus scrofa, UniProt P00592); assay: Continuous fluorescent assay of PLA2 (Bis-BODIPY FL C11-PC labeled DOPC-PG liposomes); settings: for loss of activity after treating the protein in boiling water: boiling water for 5 min; for TFI: 5 ng PLA2, 37° C., 2 min; for TFI / % of control: truncated α1-AT 6 μg, intact α1-AT 20 μg, albumin 20 μg
porcine pancreatic PLA2, sequence (P00592 23-146): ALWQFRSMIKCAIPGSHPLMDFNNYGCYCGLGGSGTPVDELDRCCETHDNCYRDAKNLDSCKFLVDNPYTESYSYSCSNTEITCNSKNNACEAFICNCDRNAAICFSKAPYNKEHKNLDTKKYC

[1] = target: PLC (Clostridium perfringens) (Clostridium perfringens, UniProt P0C216)
[2] = target: T1, porcine pancreatic lipase (Sus scrofa, UniProt P00591); assay: Fluorescent assay of lipase after PLC reaction; format: biochemical; settings: FIG. 42
T1 construct: purchased Sigma; host or cells: porcine pancreas
T1 sequence (P00591 1-450): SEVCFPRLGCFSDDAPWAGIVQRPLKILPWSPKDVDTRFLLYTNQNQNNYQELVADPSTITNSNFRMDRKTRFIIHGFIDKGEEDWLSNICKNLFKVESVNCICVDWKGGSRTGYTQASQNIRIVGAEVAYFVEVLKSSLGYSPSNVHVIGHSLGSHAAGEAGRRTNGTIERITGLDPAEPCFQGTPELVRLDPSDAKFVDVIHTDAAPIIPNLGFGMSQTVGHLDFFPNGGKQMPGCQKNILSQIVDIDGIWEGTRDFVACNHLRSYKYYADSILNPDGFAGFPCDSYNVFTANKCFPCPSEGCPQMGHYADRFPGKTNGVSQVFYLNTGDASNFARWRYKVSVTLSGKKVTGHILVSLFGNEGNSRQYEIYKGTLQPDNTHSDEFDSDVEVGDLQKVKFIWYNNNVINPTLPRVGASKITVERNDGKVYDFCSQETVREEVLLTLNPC

pancreatic PLA2 = target: T2, pancreatic PLA2 (Sus scrofa, UniProt P00592); assay: Radioactive assay of PLA2 (14C-labeled liposomes); format: biochemical, porcine; settings: 10 μg rabbit lung annexin, FIG. 25
T2 construct: purchased Sigma Chemical (St. Louis, Mo.); host or cells: porcine pancreas
T2 sequence (P00592 23-146): as the sequence (P00592 23-146) above
Description: Radioactive assay of PLA2. […] In some tests, 25-100 μg of CF BALF proteins, or 10 μg of rabbit lung annexin I or annexin VIII or both were added to the reaction mixture as specified. The reaction was carried out at room temperature for 30 sec and stopped by adding 2 ml of chloroform:methanol (1:2 vol) followed by addition of 0.4 ml water, and 10 μl of egg PC and lysoPC (20 nmol) which was used as carrier. The test tube was stirred using a Vortex. Lipids were extracted by adding additional 0.6 ml water and 0.6 ml chloroform. After agitating on a vortex, the mixture was centrifuged at 2,000 rpm for 10 min. The chloroform layer was withdrawn and transferred to a new test tube using a Pasteur pipette. Chloroform was evaporated to dryness under a flow of nitrogen. PC and lysoPC were isolated by the methods of silica gel thin-layer chromatography (TLC) using a developing solvent system of chloroform/methanol/water in a ratio of 65/45/5 as described previously (41). Lipids on the TLC plate were visualized by exposure of the TLC plate in an iodine tank. […] Radioactivity in the vial was determined by using a beta scintillation counter. PLA2 activity was expressed as either decrease in PC radioactivity or increase in fatty acid or lysoPC radioactivity as described previously (41).

[3] = with lysoPC (9 nmol), control LysoPC + PLA2
[4] = without lysoPC, control PLA2 (5 ng)

Row | Molecule | loss of activity after treating the protein in boiling water (porcine pancreatic PLA2) | effect on PLC activity [1] | TFI (porcine pancreatic PLA2; with lysoPC (9 nmol)) | % of control (porcine pancreatic PLA2; [3]) [%] | TFI (porcine pancreatic PLA2; without lysoPC) | % of control (porcine pancreatic PLA2; [4]) [%] | effect on lipase activity [2] | inhibition of PLA2 and PLA2-s activities (pancreatic PLA2) | also measured
1 | Human serum α1-AT: human serum α1-AT obtained from Sigma Chemical Co. | not affected | inhibited PLC activity |  |  |  |  |  |  | effect of commercial α1-AT on PLA2 activity (porcine pancreatic PLA2; Sigma product, FIG. 44A): stimulated PLA2 activity
2 | Intact α1-AT: intact 52 kDa human serum α1-AT; serum PLA2-s (protein-II) purified from human serum | less than 20% | effectively inhibited PLC activity | 29.81 | 151.4 | 68.96 | 183.3 | no effect on the lipase activity |  | effect on PLA2 activity (porcine pancreatic PLA2; wide range of protein concentrations): exhibited only PLA2-stimulating activity
3 | B1 |  |  |  |  |  |  |  | significantly inhibited | inhibition of PLA2 activity and of the effect of truncated α1-AT on PLA2 stimulation (porcine pancreatic PLA2; fluorescent assay, FIG. 46B): markedly inhibited
4 | B2 | heat stable | effectively inhibited PLC activity | 31.82 | 161.6 | 57.23 | 152.1 | no effect on the lipase activity |  | effect of isolated PLA2-s on pancreatic PLA2 activity (porcine pancreatic PLA2; 6 μg PLA2-s, FIG. 29B): exhibited PLA2-stimulating activity; effect on PLA2 activity with 50% PC-50% PG liposomes (porcine pancreatic PLA2; 6 μg truncated α1-AT, 37° C.): markedly stimulated; effect on PLA2 activity with 90% PC-10% PG liposomes (porcine pancreatic PLA2; 6 μg truncated α1-AT, 37° C.): did not significantly enhance the PLA2 activity; effect on PLA2 activity with 100% PC liposomes (porcine pancreatic PLA2; 6 μg truncated α1-AT, 37° C.): did not stimulate PLA2 activity
5 | B3 |  |  |  |  |  |  |  | significantly inhibited | 
